Earlier results on 1 substance are cited in publication PMC4448168.

One may read the Ki as a measure of affinity in units of concentration, obtained from inhibition or displacement.

This data set addresses α7 nAChR (UniProt P36544).
Chain of UniProt P36544 (P36544 23-502): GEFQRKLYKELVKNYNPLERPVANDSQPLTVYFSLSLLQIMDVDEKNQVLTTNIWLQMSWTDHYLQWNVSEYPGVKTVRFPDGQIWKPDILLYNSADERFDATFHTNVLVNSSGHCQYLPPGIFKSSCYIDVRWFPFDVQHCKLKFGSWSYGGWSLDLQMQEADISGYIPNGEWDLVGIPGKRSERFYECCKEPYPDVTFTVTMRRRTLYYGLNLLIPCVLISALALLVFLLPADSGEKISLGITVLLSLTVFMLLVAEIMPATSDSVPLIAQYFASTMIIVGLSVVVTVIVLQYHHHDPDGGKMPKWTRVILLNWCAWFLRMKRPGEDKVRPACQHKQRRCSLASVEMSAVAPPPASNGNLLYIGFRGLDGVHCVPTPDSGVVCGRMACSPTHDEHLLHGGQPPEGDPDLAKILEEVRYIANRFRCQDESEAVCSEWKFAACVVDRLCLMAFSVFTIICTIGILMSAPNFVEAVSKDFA

Consider α-elapitoxin-Aa2a (from UniProt P86522), for which the Ki was 214 µM.
